Data: publication PMC7841527

Tests used:
[1] = biological target: FLAG-tagged HDAC4 p.Thr244Lys variant (human); experiment: co-IP; HEK293 cells co-transfected with FLAG-HDAC4 (native or variant) and HA-14-3-3β; ~48 h post-transfection cleared extracts immunoprecipitated with anti-FLAG antibody; western blot with anti-HA; blots quantified with ImageJ relative to HDAC4 and 14-3-3β loading controls
[2] = biological target: FLAG-tagged HDAC4 p.Glu247Gly variant (human); experiment: as above
FLAG-tagged HDAC4 p.Glu247Gly variant (human), sequence (P56524 whole entry E247G): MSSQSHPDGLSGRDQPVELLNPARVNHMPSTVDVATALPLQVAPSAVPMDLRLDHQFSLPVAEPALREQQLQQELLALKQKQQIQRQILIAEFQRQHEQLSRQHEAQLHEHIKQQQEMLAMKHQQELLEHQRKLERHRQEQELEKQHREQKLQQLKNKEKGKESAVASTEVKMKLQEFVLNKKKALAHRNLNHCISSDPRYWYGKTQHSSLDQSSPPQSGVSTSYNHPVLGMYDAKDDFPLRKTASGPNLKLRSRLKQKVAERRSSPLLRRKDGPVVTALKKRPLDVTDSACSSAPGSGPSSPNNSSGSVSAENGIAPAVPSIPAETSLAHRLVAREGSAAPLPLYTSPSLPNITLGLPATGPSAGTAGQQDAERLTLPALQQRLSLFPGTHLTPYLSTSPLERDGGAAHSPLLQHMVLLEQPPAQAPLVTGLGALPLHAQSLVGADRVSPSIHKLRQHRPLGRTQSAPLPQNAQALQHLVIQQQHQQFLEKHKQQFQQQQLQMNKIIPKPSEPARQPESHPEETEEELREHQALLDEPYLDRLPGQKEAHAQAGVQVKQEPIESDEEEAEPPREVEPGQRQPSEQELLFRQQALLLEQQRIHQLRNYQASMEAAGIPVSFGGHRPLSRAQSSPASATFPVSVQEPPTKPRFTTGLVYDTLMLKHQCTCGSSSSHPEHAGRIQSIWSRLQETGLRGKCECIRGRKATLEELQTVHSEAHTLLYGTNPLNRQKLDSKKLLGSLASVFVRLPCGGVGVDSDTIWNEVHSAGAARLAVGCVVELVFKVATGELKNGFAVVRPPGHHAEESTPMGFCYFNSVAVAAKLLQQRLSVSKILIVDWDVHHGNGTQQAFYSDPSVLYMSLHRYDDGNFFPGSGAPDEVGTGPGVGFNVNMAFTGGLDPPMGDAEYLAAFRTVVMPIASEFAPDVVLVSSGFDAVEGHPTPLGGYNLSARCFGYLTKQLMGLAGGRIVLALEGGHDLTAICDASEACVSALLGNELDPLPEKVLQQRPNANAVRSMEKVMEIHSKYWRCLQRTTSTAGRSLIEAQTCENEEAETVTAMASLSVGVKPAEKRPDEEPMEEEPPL

FLAG-tagged HDAC4 p.Thr244Lys variant (human), sequence (P56524 whole entry T244K): as the sequence (P56524 whole entry E247G) above, with T244K, G247E counted along it

14-3-3β (hemagglutinin [HA]-tagged) (from UniProt P31946 1-246) (natural protein)
fold reduction of binding compared to native HDAC4 [1]: 2 fold | fold reduction of binding compared to native HDAC4 [2]: 2 fold
